B1: Pistol ribozyme (parent)
chain: GGGUCGUUGUUCCAUAAUCGCGUGGAUAUGGCACGCAAGUUUCUACCGGGCACCGUAAAUGUCCGACUGGAGCCGUUCGGGCGGCUAUAAACAGACCUCAGGCCCGAAGCGUGGCGGCACCUGCCGCCGGUGGUAAAAAAGAUCGGAAGAGCACACGUCU

Variants of: B1
Assay: aptazyme ON/OFF ratio, guanine; higher = stronger switching; co-transcriptional cleavage with and without guanine

**Q.** For U7C G9C U11G C12U, which “aptazyme ON/OFF ratio” value is on record?
**A.** The value was 1.08.

**Q.** Which “aptazyme ON/OFF ratio” value does the source give for U7A U8C U10A U11G C12A C13U here?
**A.** Its value is 1.22.

**Q.** Which “aptazyme ON/OFF ratio” value does the source give for U8C G9U C12G C13G here?
**A.** Its value is 1.17.

**Q.** For U7A G9U U10A C12G C13G, which “aptazyme ON/OFF ratio” value is on record?
**A.** Its value is 1.26.

**Q.** With U7A U10A U11C C12U as the variant, how does the “aptazyme ON/OFF ratio” value read?
**A.** Its value is 1.03.

**Q.** Which “aptazyme ON/OFF ratio” value does the source give for U7G U8C U10G U11C C12A here?
**A.** The value was 1.57.

**Q.** Which “aptazyme ON/OFF ratio” value does the source give for G9U U10A U11A C12G C13U here?
**A.** Its value is 1.64.

**Q.** For U7A C12U C13U, which “aptazyme ON/OFF ratio” value is on record?
**A.** Its value is 1.38.

**Q.** For U7A U8A C12U C13A, which “aptazyme ON/OFF ratio” value is on record?
**A.** Its value is 1.29.

**Q.** With U7A U8C G9C U11G C12U C13U as the variant, how does the “aptazyme ON/OFF ratio” value read?
**A.** Its value is 1.27.

**Q.** With U7A U8C G9C U10G U11G C12A as the variant, how does the “aptazyme ON/OFF ratio” value read?
**A.** Its value is 1.24.

**Q.** Which “aptazyme ON/OFF ratio” value does the source give for U7A U8C G9U U10A U11G C12U here?
**A.** Its value is 1.35.

**Q.** Which “aptazyme ON/OFF ratio” value does the source give for U7G U8A U11A C12U C13U here?
**A.** Its value is 1.36.

**Q.** Which “aptazyme ON/OFF ratio” value does the source give for U7G U8G U10A C12U here?
**A.** The value was 1.45.

**Q.** For U7C U8G G9U U11G, which “aptazyme ON/OFF ratio” value is on record?
**A.** Its value is 1.2.

**Q.** For U7A U8C G9C U11A C12A C13G, which “aptazyme ON/OFF ratio” value is on record?
**A.** The value was 1.08.

**Q.** With U7C U8A G9C U10C U11G C13U as the variant, how does the “aptazyme ON/OFF ratio” value read?
**A.** Its value is 1.16.

**Q.** Which “aptazyme ON/OFF ratio” value does the source give for U7A G9U U10G U11C C12G C13A here?
**A.** Its value is 1.15.

**Q.** Which “aptazyme ON/OFF ratio” value does the source give for U8C G9C U10G U11A C12A C13G here?
**A.** The value was 1.1.

**Q.** With U7C U8C G9A U11G C12U C13A as the variant, how does the “aptazyme ON/OFF ratio” value read?
**A.** The value was 1.22.

**Q.** With U7A U8G G9U U11C C12G as the variant, how does the “aptazyme ON/OFF ratio” value read?
**A.** The value was 1.26.

**Q.** With U7G U11C C12U C13G as the variant, how does the “aptazyme ON/OFF ratio” value read?
**A.** Its value is 1.1.

**Q.** Which “aptazyme ON/OFF ratio” value does the source give for U10C U11G C12U C13U here?
**A.** The value was 1.28.

**Q.** With U7C U8C G9A U10C U11C C13G as the variant, how does the “aptazyme ON/OFF ratio” value read?
**A.** Its value is 1.21.

**Q.** For U7A U8C G9A U10G U11C C12A C13U, which “aptazyme ON/OFF ratio” value is on record?
**A.** Its value is 1.23.

**Q.** For U7C U8G G9C U10A U11C C12U C13A, which “aptazyme ON/OFF ratio” value is on record?
**A.** Its value is 1.11.

**Q.** For U7C U8G G9C U10A U11C C12U C13U, which “aptazyme ON/OFF ratio” value is on record?
**A.** Its value is 1.09.

**Q.** With U8C G9C U10A C12U C13U as the variant, how does the “aptazyme ON/OFF ratio” value read?
**A.** The value was 1.14.

**Q.** Which “aptazyme ON/OFF ratio” value does the source give for U7C G9U U10A C13U here?
**A.** Its value is 1.22.

**Q.** With U7A U8C G9C U11C C12A C13A as the variant, how does the “aptazyme ON/OFF ratio” value read?
**A.** Its value is 1.06.

**Q.** With U7A U8G U10C U11G C12G C13U as the variant, how does the “aptazyme ON/OFF ratio” value read?
**A.** The value was 1.41.

**Q.** Which “aptazyme ON/OFF ratio” value does the source give for G9A U11G C12U C13G here?
**A.** Its value is 1.42.

**Q.** With U7G U8G G9U U10C U11C C12A C13U as the variant, how does the “aptazyme ON/OFF ratio” value read?
**A.** The value was 1.53.

**Q.** For U7A U8G G9C U10A U11A C12A C13U, which “aptazyme ON/OFF ratio” value is on record?
**A.** Its value is 1.38.

**Q.** With U7C U8G G9A U10C C12U C13A as the variant, how does the “aptazyme ON/OFF ratio” value read?
**A.** The value was 1.08.

**Q.** For U8A G9C U11G C12G C13U, which “aptazyme ON/OFF ratio” value is on record?
**A.** The value was 1.07.

**Q.** Which “aptazyme ON/OFF ratio” value does the source give for U8A G9A U10G here?
**A.** The value was 1.46.

**Q.** For U7C U10A U11G C12U, which “aptazyme ON/OFF ratio” value is on record?
**A.** The value was 1.19.

**Q.** For U7A U8G U11A C13U, which “aptazyme ON/OFF ratio” value is on record?
**A.** Its value is 1.11.

**Q.** With U7A U8G G9C U10G U11A C13G as the variant, how does the “aptazyme ON/OFF ratio” value read?
**A.** The value was 1.25.

**Q.** With U7A U8A U11G C12G C13U as the variant, how does the “aptazyme ON/OFF ratio” value read?
**A.** The value was 1.46.

**Q.** Which “aptazyme ON/OFF ratio” value does the source give for U8G G9A U10C U11G C12A here?
**A.** The value was 1.06.

**Q.** For U8C U10G U11A C12A C13A, which “aptazyme ON/OFF ratio” value is on record?
**A.** The value was 1.18.

**Q.** Which “aptazyme ON/OFF ratio” value does the source give for U7G U8A G9C U10A U11G C12G C13A here?
**A.** Its value is 1.05.

**Q.** For U7G U8G G9C U10G C12G, which “aptazyme ON/OFF ratio” value is on record?
**A.** Its value is 1.21.

**Q.** For U7G U8C G9U U10C C12A C13G, which “aptazyme ON/OFF ratio” value is on record?
**A.** Its value is 1.27.

**Q.** With U7A G9U U10C U11A C12A C13A as the variant, how does the “aptazyme ON/OFF ratio” value read?
**A.** The value was 1.2.

**Q.** With U7C U8C U10G C12U as the variant, how does the “aptazyme ON/OFF ratio” value read?
**A.** The value was 1.11.

**Q.** For U7A U8C G9A U10G U11A C12G C13U, which “aptazyme ON/OFF ratio” value is on record?
**A.** The value was 1.3.

**Q.** Which “aptazyme ON/OFF ratio” value does the source give for U7C G9A U10A U11C C12U C13U here?
**A.** Its value is 1.23.

**Q.** Which “aptazyme ON/OFF ratio” value does the source give for U8C G9U U10A U11G C12G C13G here?
**A.** The value was 1.12.

**Q.** Which “aptazyme ON/OFF ratio” value does the source give for G9U U10A U11C C12A C13A here?
**A.** Its value is 1.06.

**Q.** Which “aptazyme ON/OFF ratio” value does the source give for U8G G9A U11A C12A here?
**A.** Its value is 1.33.

**Q.** For U7A U8A G9U U11C C13G, which “aptazyme ON/OFF ratio” value is on record?
**A.** The value was 1.05.

**Q.** With U7A U8A G9U U11C C13U as the variant, how does the “aptazyme ON/OFF ratio” value read?
**A.** The value was 1.04.

**Q.** For U7A C12A C13A, which “aptazyme ON/OFF ratio” value is on record?
**A.** The value was 1.4.

**Q.** With U7G U8G U10A U11A C12U C13U as the variant, how does the “aptazyme ON/OFF ratio” value read?
**A.** The value was 1.15.

**Q.** For G9A U10G U11C C12A, which “aptazyme ON/OFF ratio” value is on record?
**A.** The value was 1.53.

**Q.** Which “aptazyme ON/OFF ratio” value does the source give for G9A U10C U11G C12G C13U here?
**A.** The value was 1.1.

**Q.** For U7G G9U U10C U11A C12A C13G, which “aptazyme ON/OFF ratio” value is on record?
**A.** Its value is 1.16.

**Q.** For U7G U8A G9U U11C C12G, which “aptazyme ON/OFF ratio” value is on record?
**A.** The value was 1.11.

**Q.** With U7C U8A U10G U11C C12A C13A as the variant, how does the “aptazyme ON/OFF ratio” value read?
**A.** The value was 1.37.

**Q.** Which “aptazyme ON/OFF ratio” value does the source give for U7A U8A G9C U11G C12A C13U here?
**A.** Its value is 1.23.

**Q.** For U7A U10C C12G, which “aptazyme ON/OFF ratio” value is on record?
**A.** The value was 1.42.

**Q.** With U7G U8A U10C U11A C12U C13G as the variant, how does the “aptazyme ON/OFF ratio” value read?
**A.** The value was 1.19.

**Q.** For U7A G9C U11G C12A C13U, which “aptazyme ON/OFF ratio” value is on record?
**A.** The value was 1.29.

**Q.** For U7G U8C C12U, which “aptazyme ON/OFF ratio” value is on record?
**A.** Its value is 1.2.

**Q.** With U7A U8G G9A C12U C13A as the variant, how does the “aptazyme ON/OFF ratio” value read?
**A.** The value was 1.28.

**Q.** For U7C U8C G9U C13A, which “aptazyme ON/OFF ratio” value is on record?
**A.** The value was 1.02.

**Q.** With U7C U8A U11A C12U C13U as the variant, how does the “aptazyme ON/OFF ratio” value read?
**A.** The value was 1.24.

**Q.** For U7C U8C G9A U10C C12G C13G, which “aptazyme ON/OFF ratio” value is on record?
**A.** The value was 1.21.

**Q.** For U7C U8A G9C U11G C12U C13U, which “aptazyme ON/OFF ratio” value is on record?
**A.** Its value is 1.13.

**Q.** Which “aptazyme ON/OFF ratio” value does the source give for U7G U8C U10C C12A C13U here?
**A.** Its value is 1.24.

**Q.** For U7C G9A U10A U11A C12A C13U, which “aptazyme ON/OFF ratio” value is on record?
**A.** The value was 1.29.

**Q.** Which “aptazyme ON/OFF ratio” value does the source give for U7A U8C G9U U10A U11C here?
**A.** The value was 1.01.

**Q.** Which “aptazyme ON/OFF ratio” value does the source give for U7A U8G G9A U10A U11C C12G C13U here?
**A.** The value was 1.33.

**Q.** With U7G U8G G9C U10A U11C C12U as the variant, how does the “aptazyme ON/OFF ratio” value read?
**A.** Its value is 1.08.

**Q.** Which “aptazyme ON/OFF ratio” value does the source give for U7A U8A G9U U10A here?
**A.** The value was 1.25.

**Q.** With U7A U8A U11A C12A C13A as the variant, how does the “aptazyme ON/OFF ratio” value read?
**A.** Its value is 1.33.

**Q.** Which “aptazyme ON/OFF ratio” value does the source give for U7C U8G U10A U11C C12U C13U here?
**A.** Its value is 1.06.

**Q.** Which “aptazyme ON/OFF ratio” value does the source give for U7C G9C U10A U11C C12G here?
**A.** Its value is 1.26.

**Q.** With G9C U10C U11A C12U as the variant, how does the “aptazyme ON/OFF ratio” value read?
**A.** Its value is 1.13.

**Q.** Which “aptazyme ON/OFF ratio” value does the source give for U7G U8A G9A U11C C12A C13G here?
**A.** Its value is 1.12.

Reference: the RNAGym collection of RNA variant scans (doi:10.1021/acssynbio.7b00057)
